The record followed here is patent US20240132578A1.

Several values for one entry are separate records, joined by “and”; a condition that tells them apart may be missing. Equal values may be shown once.

What all share (test): cell-based or functional assay
The target of experiment [1] is HIV-1 Env of pseudovirus JRCSF (HIV-1) (UniProt P20871).
Experiment [2] addresses HIV-1 Env of pseudovirus MGRM-C-26 (HIV-1).
The target in experiment [3] is HIV-1 Env of pseudovirus 94UG103 (HIV-1).
Experiment [4] deals with HIV-1 Env of pseudovirus 92BR020 (HIV-1).
In experiment [5] the target is HIV-1 Env of pseudovirus 93IN905 (HIV-1).
The target in experiment [6] is HIV-1 Env of isolate APV_17 (subtype B) (HIV-1).
Experiment [7] has as its target HIV-1 Env of isolate MGRM-G-024 (subtype G), on pseudovirus (HIV-1).
Experiment [8] has as its target HIV-1 Env of isolate MGRM-G-019 (subtype G), on pseudovirus (HIV-1).
Experiment [9] concerns the target HIV-1 Env of isolate MGRM-G-028 (subtype G), on pseudovirus (HIV-1).
For experiment [10], the target named is HIV-1 Env of isolate MGRM-G-015 (subtype G), on pseudovirus (HIV-1).
Experiment [11] concerns the target HIV-1 Env of isolate MGRM-G-006 (subtype G), on pseudovirus (HIV-1).
The target of experiment [12] is HIV-1 Env of isolate APV 6 (subtype B) (HIV-1).
Experiment [13] addresses HIV-1 Env of isolate MGRM-G-013 (subtype G), on pseudovirus (HIV-1).
In experiment [14] the target is HIV-1 Env of isolate MGRM-G-017 (subtype G), on pseudovirus (HIV-1).
Experiment [15] has as its target aMLV envelope, on pseudovirus (negative control).
The target of experiment [16] is HIV-1 JR-CSF Env R480A (HIV-1 JR-CSF) (UniProt P20871).
In experiment [17] the target is HIV-1 Env of isolate MGRM-G-025 (subtype G), on pseudovirus (HIV-1).
In experiment [18] the target is HIV-1 Env of isolate MGRM-G-016 (subtype G), on pseudovirus (HIV-1).
The target of experiment [19] is HIV-1 Env of isolate MGRM-G-011 (subtype G), on pseudovirus (HIV-1).
Experiment [20] concerns the target HIV-1 Env of isolate MGRM-G-004 (subtype G), on pseudovirus (HIV-1).
Experiment [21] concerns the target HIV-1 Env of isolate MGRM-G-014 (subtype G), on pseudovirus (HIV-1).
In experiment [22] the target is HIV-1 Env of isolate 93TH305 (subtype B) (HIV-1).
Experiment [23] deals with HIV-1 Env of isolate 92BR020 (subtype B) (HIV-1).
Experiment [24] deals with HIV-1 Env of isolate MGRM-G-027 (subtype G), on pseudovirus (HIV-1).
The target in experiment [25] is HIV-1 Env of isolate APV 13 (subtype B) (HIV-1).
Experiment [26] concerns the target HIV-1 Env of isolate MGRM-G-001 (subtype G), on pseudovirus (HIV-1).
Experiment [27] addresses HIV-1 Env of isolate 6535.3 (subtype B) (HIV-1).
Experiment [28] has as its target HIV-1 Env of isolate MGRM-G-009 (subtype G), on pseudovirus (HIV-1).

B1: PGT-123 (B cell culture well 4858_P8) (antibody, V domains shown)
VH: QLHLQESGPGLVKPPETLSLTCSVSGASINDAYWSWIRQSPGKRPEWVGYVHHSGDTNYNPSLKRRVTFSLDTAKNEVSLKLVDLTAADSATYFCARALHGKRIYGIVALGELFTYFYMDVWGKGTAVTVSS
VL: SSMSVSPGETAKISCGKESIGSRAVQWYQQKPGQPPSLIIYNNQDRPAGVPERFSASPDFRPGTTATLTITNVDAEDEADYYCHIYDARGGTNWVFDRGTTLTVL
For the molecule B1, the Primary Neutralization Index (B cell culture supernatant) in experiment [1] amounted to 1.6; in experiment [2] it was 33.8; in experiment [3], 1.1; in experiment [4] it was 2.8.

B2: PGT-136 (B cell culture wells 5366_P21 and 5329_C19) (antibody, V domains shown)
VH: QLQLQESGPGLVKPSETLSLTCTVSGGSMRGTDWGENDFHYGWIRQSSAKGLEWIGSIHWRGRTTHYKTSFRSRATLSIDTSNNRFSLTFSFVTAADTAVYYCARHKYHDIFRVVPVAGWFDPWGQGLLVTVSS
VL: EIVMTQSPPTLSVSPGETATLSCRASQNVKNNLAWYQLKPGQAPRLLIFDASSRAGGIPDRFSGSGYGTDFTLTVNSVQSEDFGDYFCQQYEEWPRTFGQGTKVDIK
Turning to B2, the Primary Neutralization Index (B cell culture supernatant) in experiment [5] is 5.5 and 5.6; in experiment [1], 1.1 and 0.9; in [2], 6.2 and 6.

B3: PGT-128 (antibody, V domains shown)
VH: QPQLQESGPTLVEASETLSLTCAVSGDSTAACNSFWGWVRQPPGKGLEWVGSLSHCASYWNRGWTYHNPSLKSRLTLALDTPKNLVFLKLNSVTAADTATYYCARFGGEVLRYTDWPKPAWVDLWGRGTLVTVSS
VL: QSALTQPPSASGSPGQSITISCTGTSNNFVSWYQQHAGKAPKLVIYDVNKRPSGVPDRFSGSKSGNTASLTVSGLQTDDEAVYYCGSLVGNWDVIFGGGTKLTVL
Regarding B3, the IC50 (µg/mL), pseudovirus neutralization in experiment [6] amounted to 0.016 µg/mL; in experiment [12], 0.007 µg/mL; in experiment [22] it was 0.006 µg/mL; in experiment [23], 0.009 µg/mL; in experiment [25], 0.008 µg/mL; in experiment [27], 0.011 µg/mL. Also, the IC50 (µg/mL), neutralization of pseudovirus in experiment [7] was 0.095 µg/mL; in [8], 0.01 µg/mL; in experiment [9], 0.008 µg/mL; in experiment [10], above 50 µg/mL; in experiment [11], above 50 µg/mL; in experiment [13] it was 0.995 µg/mL. The IC50 (µg/mL), neutralization of pseudovirus in experiment [14] was 0.319 µg/mL; in experiment [15], above 50 µg/mL; in [17] it was 0.017 µg/mL; in [18], above 50 µg/mL; in experiment [19], 8.21 µg/mL; in experiment [20], above 50 µg/mL. Besides, the IC50 (µg/mL), neutralization of pseudovirus in [21] was 0.004 µg/mL; in experiment [24] it was 0.313 µg/mL; in experiment [26] it was 0.019 µg/mL; in experiment [28], above 50 µg/mL. In experiment [16], this molecule came in with a Fold IC50 increase relative to wild-type of 0.1 fold.

B4: Antibody of B cell culture well 4869_K15 (antibody, V domains shown)
VH: QVHLQESGPGLVTPSETLSLTCTVSNGSVSGRFWSWIRQSPGRGLEWIGYFSDTDRSEYNPSLRSRLTLSVDRSKNQLSLRLKSVTAADSATYYCARAQQGKRIYGIVSFGEFFYYYYMDAWGKGTPVTVSS
VL: SLNPLSLAPGATAKIPCGERSRGSRAVQWYQQKPGQAPTLIIYNNQDRPAGVSERFSGNPDVAIGVTATLTISRVEVGDEADYYCHYWDSRSPISWIFGGGTQLTVL
As to B4, the Primary Neutralization Index (B cell culture supernatant) in experiment [1] is 2.1; in [2], 104; in experiment [3] it was 1.5; in experiment [4], 3.9.

B5: PGT-137 (B cell culture well 5345_I1) (antibody, V domains shown)
VH: EVHLEESGPGLVRPSETLSLTCTASGGSIRGGEWGDSDYHWGWVRHSPEKGLEWIGSIHWRGTTHYNAPFRGRGRLSIDLSRNQFSLRLTSVTAEDTAVYYCVKHKYHDIVMVVPIAGWFDPWGQGLQVTVSS
VL: EIMMTQSPAILSVSPGDRATLSCRASQSVKNNLAWYQKRPGQAPRLLIFDTSSRASGIPARFSGGGSGTEFTLTVNSMQSEDFATYYCQQYEEWPRTFGQGTKVEIK
Consider B5, for which the Primary Neutralization Index (B cell culture supernatant) was found to be 3.3 in experiment [5], 1.1 in experiment [1] and 11.3 in experiment [2].
